Assay results from the DeepSol protein solubility set.

Assay: soluble on expression in E. coli; label from the status in PepcDB or PDB records

For “MSLFPAELMVVRKAQDGTIRPLMIAPDHVDIAEKVIEIYRSSAGRTRKEISKDIVTIEYGIKNPKIVRGLALIMDRMSTFRNRSRVDSKQLRGFLFQMGPAVSPEERQEKIALAAEHFSVSPQDIEEAIYGDMDSENVLDQCPSITPEHLNRRYNLEQLTTLMYRSKFIEVSGINNWYRFISLIKRQGLVFEAQGNPLMSVRIDGPNSVFNNMERYGSSMARVVERLTAFPGWKLHAEVEIKDRVYSVDLDSSISYYLPETDIEEEEAIPDPVVIGTRVFFPTRIINVHGQDVYVDIVYHMSPEAIKRRDEMIRSSGIKWITAVVGECKKFQGVLCFRNRVDWDAIIAKASEEYPATTDALREEIDRLYPNTEAILDLLDSRSIPLSHLEKIGYRIKWNGILPEIVRSTEGHHHHHH”, which “soluble on expression in E. coli” value is on record?
The value was “soluble”.

Which “soluble on expression in E. coli” value does the source give for “MGSDKIHHHHHHMRNLISETKSLYKLIDFKDVQIFGDAANYTCILFLKIYKNDVFSYIFPKSTDTFTIQSVSNVDTFQEYKLPLPKPDHPWILSENKVSELIRKLSRKGIPLEIISKNIFQSLTTSADGIYFVQVESETRDTAKIRNIKNNLEFAVEKTILRKLLKGKDIRRCSVDWKGSYVVYPYLVKDDKASLITLSEIKDRYPLAYEYFKHYELQLKTREDNKLKDDENWHQYIYRKNLEKFEQKKIVTQVLASKNTFAIDLNGEFYFVGGDNAGGYGIVLNDNNQNMYYFVLALLNSNVLEFYLKNISTPFRGGYFSYGKRFIDKLPLLIPKDSRFDSVSSLSKEQMNISKKMRNFPNTDERDLLEREYDKRCQELNQMIYEIYGLNKLEITLLDDRLCQ” here?
Its value is “not soluble”.

With “MVVKEKVVNEMQEVKEMIDTLVNNGRKALQALESFTQEQIDNIVHEMALAGVDQHMPLAKLAVEETGRGVYEDKCIKNIFATEYIWHSIKKDKTVGIIHEDPHEEIIEIAEPVGVVAGVTPVTNPTSTTMFKALIAIKTRNPIIFAFHPSAQNCSVAAAKTVYDAAVKAGAPKHCIQWIEKPSVEATKQLMNHEGVALVLATGGAGMVKSAYSTGKPALGVGPGNVPCYIEKSAHIKRAVNDLILSKTFDNGMICASEQAIIVDKEIYDDVKTEMITNDCYFVTEEERRKLEKLVINENTCAVNSDIVGKSAQYIAELVGITVPKNTKMLVAEIQGIGAAYPLSREKLSPVLACVKANSLEEGFTYCEEMLNLGGLGHSAVIHSVNKEVQKQFGLRMKACRLIVNAPSSQGGIGDIYNGFIPSLTLGCGSYGKNSVSQNVTATHLLNIKRLANRKKNMQWFKLPPKIYFEKHATAYLANMPNISRAFIVTDPGMVEHGYVDTVAHYLRKHANDVKVEVFFEVEPDPSDETVFKGAEMMRSFQPDVIIALGGGSAMDAAKGMWLFYEYPETTFYGIKQKFLDIRKRTCKYPELGSKAQFVAIPTTSGTGSEVTPFAVITDKKNNIKYPLADYELTPDVAIVDPQFVMTVPPHVTADTGMDVLTHAIEAYVSVLANDYTDGLALKAIDLVFKYLPRAFKDGHDEEAREKMHNASAIAGMAFANAFLGINHSLAHKIGPEFHIPHGRANAILMPHVIRYNAIKPRKHALFPKYEHFVADERYAHIARMLGLPASSVAEGVESLDKAIIDLGKSLNINMSIAGQGVAKDQFEEVVGLLAERAFEDQCTTANPKLPLISELKEIYMKAYKGE” as the sequence, how does the “soluble on expression in E. coli” value read?
Its value is “not soluble”.

With “MNICMRNGYEQFSLTSPGTSDLEIGGSFWKDEPDTKYLCLDSPVEQRQHQPPMAVCAGCRLEISDRYFLRVNPNLEFHAQCLKCVQCSRPLDENQTAFVKNGQTYCRDDYRRLFTTRCSRCHGDFDKTDLVMRAGPQNVFHLNCFACVACEKRLQTGEEFQIKNNSLYCRSDCRGLDNPDTSASVPDYSKLNNNNNNDNNNSSSNFDEDEWDEERSTLTSLDNNTSSPLGSPKSDGVRTPLFGHHNSGSGGSTSSCGKKKKDKQATRVRTVLNENQLKILRDCYSINSRPDATLKERLVEMTGLSARVIRVWFQNKRCKDKKRQIQITENRLNSEREEVLNRVRVNGIGPLMVQPATPHIDNTLGGPIDIQHFAQWNGTPPPPPPQYGNPMMFNSPSTFDVSVILAPVAPNVTSPSEALGPLGASVFPHFSPQHAPFTATSHDISSPAPCGE” as the sequence, how does the “soluble on expression in E. coli” value read?
The value was “not soluble”.
